In the supplement of paper PMC10724198:
± gives the standard deviation of the averaged measurements.

Columns and labels:
Saccharomyces cerevisiae [1] = experiment: protein stability index of tFT-peptide fusion in deletion strain of DAS1 (PSI (0-1 scale)); higher = more stable (slower turnover)
Protocol: (§1)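 MPS profiling in S. cerevisiae of two library types built from selected 12-aa C-degron peptides (IN1, IN2, LN1, LN3, VN2, R1-R5, W1-W3, Atg1 and Rpa12 C-termini): saturation mutagenesis libraries and C-terminal +1 capping libraries (13 aa). Each peptide is fused to the C-terminus of a sfGFP-mCherry timer, after a GGGS linker. Cells are FACS-sorted into 8 mCherry/sfGFP bins and sequenced. PSI runs from 0 (unstable) to 1 (stable), measured once in wild type and in the das1Δ or doa10Δ background.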

Saccharomyces cerevisiae [2] = experiment: protein stability index of tFT-peptide fusion in wild type (PSI (0-1 scale)); higher = more stable (slower turnover); conditions: genetic background: wild type
Protocol: as §1

Saccharomyces cerevisiae [3] = experiment: protein stability index of tFT-peptide fusion (C-terminal peptide) (PSI (0-1 scale)); higher = more stable (slower turnover); conditions: temperature: 30 C
Protocol: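 MPS profiling in S. cerevisiae of the yeast C-terminome library: the last 12 aa of each annotated ORF are fused to the C-terminus of a sfGFP-mCherry timer, after a GGGS linker. Cells are FACS-sorted into 8 mCherry/sfGFP bins and deep-sequenced. PSI runs from 0 (unstable) to 1 (stable); wild type and das1Δ backgrounds, two technical replicates each.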

[4] = genetic background: das1 deletion
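For protein stability index of tFT-peptide fusion in deletion strain of DAS1 in this document: PSI is a weighted mean of each variant's read distribution over the sorted stability bins, computed only for variants having over 10 reads in total.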
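For protein stability index of tFT-peptide fusion in wild type in this document: PSI derived as read-weighted mean over the 8 sorting bins, only variants exceeding 10 total reads kept, mCherry placed adjacent to the peptide and sfGFP distal.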

Sequence	protein stability index (Saccharomyces cerevisiae [1])	protein stability index (Saccharomyces cerevisiae [2])	protein stability index (Saccharomyces cerevisiae [3]; [4])	protein stability index (Saccharomyces cerevisiae [3]; genetic background: wild type)
ARHRVGLWRGAS	0.689	0.603	–	–
ARWCVGLWRGAS	0.7	0.357	–	–
ARWFVGLWRGAS	0.699	0.345	–	–
ARWKVGLWRGAS	0.673	0.32	–	–
ARWRKGLWRGAS	0.697	0.657	–	–
ARWRRGLWRGAS	0.692	0.55	–	–
ARWRTGLWRGAS	0.679	0.474	–	–
ARWRVDLWRGAS	0.728	0.214	–	–
ARWRVGLFRGAS	0.665	0.655	–	–
ARWRVGLMRGAS	0.677	0.596	–	–
ARWRVGLRRGAS	0.683	0.672	–	–
ARWRVGLWRCAS	0.674	0.114	–	–
ARWRVGLWRGAF	0.682	0.603	–	–
ARWRVGLWRGAM	0.702	0.531	–	–
ARWRVGLWRGAW	0.686	0.68	–	–
ARWRVGLWRGLS	0.661	0.119	–	–
ARWRVGLWRGRS	0.679	0.66	–	–
ARWRVGLWRHAS	0.688	0.0927	–	–
ARWRVGLWRNAS	0.693	0.11	–	–
ARWRVGLWRYAS	0.686	0.0836	–	–
ARWRVMLWRGAS	0.705	0.305	–	–
ARWRVYLWRGAS	0.618	0.378	–	–
AVWRVGLWRGAS	0.678	0.409	–	–
CDKRNHLIKLLN	0.589	0.153	–	–
CPSCGYKFRTNN	0.754	0.361	–	–

Sequence	protein stability index (Saccharomyces cerevisiae [1])	protein stability index (Saccharomyces cerevisiae [2])	protein stability index (Saccharomyces cerevisiae [3]; [4])	protein stability index (Saccharomyces cerevisiae [3]; genetic background: wild type)
CTECGYKFRTNN	0.678	0.357	–	–
CTPCGYKFRTNN	0.686	0.248	–	–
CTSCFYKFRTNN	0.677	0.173	–	–
CTSCGDKFRTNN	0.696	0.48	–	–
CTSCGKKFRTNN	0.688	0.5	–	–
CTSCGYKERTNN	0.699	0.632	–	–
CTSCGYKFDTNN	0.705	0.667	–	–
CTSCGYKFETNN	0.707	0.656	–	–
CTSCGYKFKTNN	0.725	0.642	–	–
CTSCGYKFMTNN	0.676	0.477	–	–
CTSCGYKFRENN	0.693	0.691	–	–
CTSCGYKFRMNN	0.686	0.412	–	–
CTSCGYKFRTNG	0.685	0.399	–	–
CTSCGYKFRTNNS	0.7	0.683	–	–
CTSCGYKFRTNNW	0.716	0.705	–	–
CTSCGYKFRTNQ	0.691	0.498	–	–
CTSCGYKFRTNW	0.705	0.695	–	–
CTSCGYKMRTNN	0.669	0.227	–	–
CTSCGYKSRTNN	0.703	0.673	–	–
CTSCGYNFRTNN	0.704	0.642	–	–
CTSCSYKFRTNN	0.686	0.267	–	–
CTSFGYKFRTNN	0.678	0.127	–	–
CTSKGYKFRTNN	0.667	0.269	–	–
CTSMGYKFRTNN	0.689	0.148	–	–
CTSTGYKFRTNN	0.681	0.214	–	–

Sequence	protein stability index (Saccharomyces cerevisiae [1])	protein stability index (Saccharomyces cerevisiae [2])	protein stability index (Saccharomyces cerevisiae [3]; [4])	protein stability index (Saccharomyces cerevisiae [3]; genetic background: wild type)
DDKRNHLIKLLN	0.595	0.146	–	–
DRGAVGGWRLVG	0.655	0.176	–	–
DSMRWTFRYWVN	0.582	0.0763	–	–
DVVYLSCVACIN	0.0312	0.0164	–	–
EDKRNHLIKLLN	0.599	0.078	–	–
EKILRQKMNHQN	0.681	0.137	–	–
FSCRWTFRYWVN	0.51	0.065	–	–
FSMRWDFRYWVN	0.585	0.0502	–	–
FSMRWGFRYWVN	0.646	0.0673	–	–
FSMRWTFRHWVN	0.625	0.0837	–	–
FSMRWTFRYRVN	0.586	0.059	–	–
FSMRWTFRYSVN	0.53	0.154	–	–
FSMRWTFRYTVN	0.476	0.0631	–	–
FSMRWTFRYWEN	0.54	0.5	–	–
FSMRWTFRYWQN	0.614	0.106	–	–
FSMRWTFRYWVA	0.545	0.202	–	–
FSMRWTFRYWVK	0.45	0.49	–	–
FSMRWTFRYWVL	0.457	0.0913	–	–
FSMRWTFRYWVNY	0.471	0.114	–	–
FSMRWTFSYWVN	0.497	0.0568	–	–
FSMRWTGRYWVN	0.587	0.0626	–	–
FSMRWYFRYWVN	0.526	0.059	–	–
FSYRWTFRYWVN	0.53	0.0328	–	–
FTSCGYKFRTNN	0.676	0.207	–	–
WKLYQDYLSGKV [YER134C C-terminal 12 aa]	–	–	0.695 ± 0.014	0.719 ± 0.08

Sequence	protein stability index (Saccharomyces cerevisiae [1])	protein stability index (Saccharomyces cerevisiae [2])	protein stability index (Saccharomyces cerevisiae [3]; [4])	protein stability index (Saccharomyces cerevisiae [3]; genetic background: wild type)
WLDKHTTTEAKP [YJU3 C-terminal 12 aa]	–	–	0.7087 ± 0.0036	0.705 ± 0.0089
WQDFVPDEHISQ [VPS501 C-terminal 12 aa]	–	–	0.736 ± 0.0053	0.792 ± 0.028
WSTFYYLCRKRE [CRG1 C-terminal 12 aa]	–	–	0.693 ± 0.014	0.701 ± 0.077
WYLQSVNLRDGV [HOL1 C-terminal 12 aa]	–	–	0.6852 ± 0.005	0.688 ± 0.035
WYSRKNINSRFE [MTR10 C-terminal 12 aa]	–	–	0.714 ± 0.059	0.712 ± 0.046
YAKFGDNINLER [GIM3 C-terminal 12 aa]	–	–	0.70175 ± 0.00021	0.698 ± 0.031
YAWTRGLTNPIC [FEX1 C-terminal 12 aa]	–	–	0.69727 ± 0.00064	0.69 ± 0.0087
YELDGPYMSKRI [ELP3 C-terminal 12 aa]	–	–	0.6788 ± 0.0018	0.704 ± 0.062
YGANSQQTFEHT [YFR034W-A C-terminal 12 aa]	–	–	0.706 ± 0.011	0.728 ± 0.026
YIARNQKKGMSI [ECT1 C-terminal 12 aa]	–	–	0.685 ± 0.011	0.67 ± 0.015
YIKEAQSACNDV [COS12 C-terminal 12 aa]	–	–	0.692 ± 0.018	0.664 ± 0.03
YKNLRKTSSSHL [NPY1 C-terminal 12 aa]	–	–	0.843 ± 0.028	0.84 ± 0.031
YKTKYIWERLGK [SPC24 C-terminal 12 aa]	–	–	0.69 ± 0.012	0.694 ± 0.029
YKTQTGNFQVRL [APM3 C-terminal 12 aa]	–	–	0.706 ± 0.0095	0.722 ± 0.0093
YLERRVRTLKKD [MRPL32 C-terminal 12 aa]	–	–	0.713 ± 0.032	0.68 ± 0.013
YLVHNNADEKSN [CUZ1 C-terminal 12 aa]	–	–	0.704 ± 0.034	0.695 ± 0.05
YNDHRLPKRAKK [HSF1 C-terminal 12 aa]	–	–	0.6948 ± 0.0036	0.7354 ± 0.0051
YNKLESNLQIFM [ABZ1 C-terminal 12 aa]	–	–	0.697 ± 0.017	0.744 ± 0.0097
YPFTISYISPPY [YPR169W-A C-terminal 12 aa]	–	–	0.71 ± 0.067	0.702 ± 0.025
YPQQLLGYTDNG [YKL115C C-terminal 12 aa]	–	–	0.628 ± 0.013	0.597 ± 0.0073
YSFNKLTMTILY [YER137W-A C-terminal 12 aa]	–	–	0.6999 ± 0.0014	0.633 ± 0.026
YSIEVVPHGLIA [GLO1 C-terminal 12 aa]	–	–	0.607 ± 0.0097	0.5946 ± 0.0015
YTSKSFSPASSE [YMR181C C-terminal 12 aa]	–	–	0.704 ± 0.031	0.668 ± 0.022
YVFIVNHAAEQT [NUP116 C-terminal 12 aa]	–	–	0.677 ± 0.024	0.659 ± 0.009
YVKQQHGQSQND [EAF6 C-terminal 12 aa]	–	–	0.695 ± 0.021	0.694 ± 0.022
